Reference: US20140255415A1 (Novartis, published 2014)

Experiments:
[1] = biological target: T1, human LINGO-1-ΔLRR-Fc (Igleader-hsLINGO-1-ΔLRR-Fc) (human, UniProt Q96FE5 40-556); experiment: ELISA, captured Fc fusion protein
T1 construct: Heterologous secretion signal left out; also called human LINGO-1 lacking the LRR domain
T1 sequence: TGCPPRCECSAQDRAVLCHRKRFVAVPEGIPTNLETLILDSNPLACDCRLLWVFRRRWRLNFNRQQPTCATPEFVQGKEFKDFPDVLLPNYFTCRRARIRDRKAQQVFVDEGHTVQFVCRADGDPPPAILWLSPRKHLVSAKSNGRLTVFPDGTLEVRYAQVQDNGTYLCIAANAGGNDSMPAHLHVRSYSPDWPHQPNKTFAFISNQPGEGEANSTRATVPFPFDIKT

[2] = biological target: T2, human NgR-Fc fusion protein (R&D Systems) (human, UniProt Q9BZR6 27-447, limits assumed); experiment: ELISA, captured Fc fusion protein
T2 construct: Commercial protein; also called captured human NgR-Fc; not shown: Fc part of the commercial fusion protein; not described
T2 sequence (looked up): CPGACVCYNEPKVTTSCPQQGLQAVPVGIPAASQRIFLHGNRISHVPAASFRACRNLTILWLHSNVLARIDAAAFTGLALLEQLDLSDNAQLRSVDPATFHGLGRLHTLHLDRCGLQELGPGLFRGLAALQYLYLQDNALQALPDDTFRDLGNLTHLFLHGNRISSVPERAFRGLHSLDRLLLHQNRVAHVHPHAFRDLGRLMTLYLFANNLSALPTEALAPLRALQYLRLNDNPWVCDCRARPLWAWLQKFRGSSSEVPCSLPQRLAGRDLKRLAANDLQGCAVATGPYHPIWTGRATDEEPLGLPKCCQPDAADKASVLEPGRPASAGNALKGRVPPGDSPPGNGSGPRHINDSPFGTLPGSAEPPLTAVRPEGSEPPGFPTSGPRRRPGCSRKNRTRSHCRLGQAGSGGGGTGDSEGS

[3] = biological target: human LINGO-1 expressed on CHO-K1 cells (CHO-K1-hLINGO-1) (human) (UniProt Q96FE5); experiment: apparent KD, FACS saturation binding on CHO-K1-hLINGO-1 cells, Fab format
[4] = biological target: T3, cynomolgus monkey LINGO-1 expressed on CHO-K1 cells (CHO-K1-cmLINGO-1) (cynomolgus monkey, UniProt Q9N008 34-614); experiment: apparent KD, FACS saturation binding on CHO-K1-cmLINGO-1 cells, Fab format
T3 construct: range 34-614; also called Cynomolgus LINGO-1; not shown: 2 amino acid residue linker
T3 sequence (looked up): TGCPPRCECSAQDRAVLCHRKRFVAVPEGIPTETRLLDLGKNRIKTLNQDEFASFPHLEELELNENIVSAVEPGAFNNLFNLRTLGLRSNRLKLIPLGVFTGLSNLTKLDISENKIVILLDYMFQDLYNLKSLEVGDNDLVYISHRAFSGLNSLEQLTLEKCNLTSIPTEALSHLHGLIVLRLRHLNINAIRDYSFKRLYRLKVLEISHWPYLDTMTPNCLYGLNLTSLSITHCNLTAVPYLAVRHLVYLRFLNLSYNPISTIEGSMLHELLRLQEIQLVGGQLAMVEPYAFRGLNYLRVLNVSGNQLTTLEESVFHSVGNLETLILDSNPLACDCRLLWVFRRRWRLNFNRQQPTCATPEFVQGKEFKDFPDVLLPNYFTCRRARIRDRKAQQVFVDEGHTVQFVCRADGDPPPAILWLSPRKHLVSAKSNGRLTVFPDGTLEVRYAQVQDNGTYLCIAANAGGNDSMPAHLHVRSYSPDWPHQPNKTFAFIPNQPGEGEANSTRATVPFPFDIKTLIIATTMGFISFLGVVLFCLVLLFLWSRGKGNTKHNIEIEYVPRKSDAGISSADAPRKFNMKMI
Description: Cell based affinity of anti-LINGO-1 specific antibodies is determined by FACS saturation binding experiments. […] Otherwise the staining procedure is done identical to the FACS staining procedure described above.
In detail, CHO-K1-hLINGO-1, CHO-K1-cmLINGO-1 or CHO-K1-rLINGO-1 are detached from culture flasks by versene, washed with FACS buffer and resuspended in FACS buffer. Purified anti-LINGO-1 Fabs are serially diluted in FACS buffer and spread into round bottom 96-well microtiter plates (NUNC™, Wiesbaden, Germany). For each concentration, duplicate wells are incubated with 1.25×10⁴ cells for 30-60 min on ice in a total volume of 100 μl.

[5] = biological target: Unrelated Fc; experiment: ELISA, Fc fusion captured via goat anti-human IgG Fc, Fab detected with AP-conjugated secondary and AttoPhos
[6] = biological target: T1, human LINGO-1-ΔLRR-Fc …; experiment: as above
[7] = biological target: T2, human NgR-Fc fusion protein (R&D …); experiment: as above
[8] = biological target: T4, human LINGO-1-Fc fusion protein (natleader-hsLINGO-1-Fc) (human, UniProt Q96FE5 42-556); experiment: as above
T4 construct: also called human recombinant LINGO-1-Fc; captured human LINGO-1-Fc; not shown: protein lette
T4 sequence: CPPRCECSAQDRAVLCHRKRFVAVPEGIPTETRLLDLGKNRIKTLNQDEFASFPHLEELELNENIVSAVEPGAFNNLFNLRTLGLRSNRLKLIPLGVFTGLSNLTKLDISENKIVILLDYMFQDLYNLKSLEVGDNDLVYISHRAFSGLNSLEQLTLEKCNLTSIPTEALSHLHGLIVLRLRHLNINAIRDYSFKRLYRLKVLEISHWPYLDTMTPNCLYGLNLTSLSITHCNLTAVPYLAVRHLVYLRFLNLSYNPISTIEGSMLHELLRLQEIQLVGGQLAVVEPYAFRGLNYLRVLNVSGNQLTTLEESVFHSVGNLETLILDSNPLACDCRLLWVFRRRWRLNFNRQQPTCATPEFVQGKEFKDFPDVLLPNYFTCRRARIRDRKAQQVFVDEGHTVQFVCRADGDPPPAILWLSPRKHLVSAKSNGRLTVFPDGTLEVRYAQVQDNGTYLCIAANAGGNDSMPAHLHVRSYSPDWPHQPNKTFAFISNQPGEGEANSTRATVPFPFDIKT

binding result [1]: no binding
binding result [2]: no binding
Kd [3]: 0.35 nM
Kd [4]: 0.26 nM
relative fluorescence units (RFU) [5]: 6 RFU
relative fluorescence units (RFU) [6]: 8 RFU
relative fluorescence units (RFU) [7]: 7 RFU
relative fluorescence units (RFU) [8]: 113 RFU
B1: anti-LINGO-1 Fab 4785 (Fab, V domains shown)
VH: QVQLQQSGPGLVKPSQTLSLTCAISGDSVSDNSAAWSWIRQSPGRGLEWLGLIYLRSKWDNDYAVSVKSRITINPDTSKNQFSLQLNSVTPEDTAVYYCARTGRADEFDVWGQGTLVTVSS
VL: DIVLTQPPSVSGAPGQRVTISCSGSSSNIGNNYVSWYQQLPGTAPKLLISRNSKRPSGVPDRFSGSKSGTSASLAITGLQSEDEADYYCSTYDTFSIVFGGGTKLTVLG
